Assay results reported in patent US20260028424A1 (GRANULAR THERAPEUTICS, published 2026).

T1: biotinylated human CD203c (bio-huCD203c, Acro, Cat. nr. H52H4) (human, UniProt O14638 49-875, limits assumed, biotinylated (site not stated))
T1 construct: Captured on a Biotin CAPture chip for SPR
T1 sequence (looked up): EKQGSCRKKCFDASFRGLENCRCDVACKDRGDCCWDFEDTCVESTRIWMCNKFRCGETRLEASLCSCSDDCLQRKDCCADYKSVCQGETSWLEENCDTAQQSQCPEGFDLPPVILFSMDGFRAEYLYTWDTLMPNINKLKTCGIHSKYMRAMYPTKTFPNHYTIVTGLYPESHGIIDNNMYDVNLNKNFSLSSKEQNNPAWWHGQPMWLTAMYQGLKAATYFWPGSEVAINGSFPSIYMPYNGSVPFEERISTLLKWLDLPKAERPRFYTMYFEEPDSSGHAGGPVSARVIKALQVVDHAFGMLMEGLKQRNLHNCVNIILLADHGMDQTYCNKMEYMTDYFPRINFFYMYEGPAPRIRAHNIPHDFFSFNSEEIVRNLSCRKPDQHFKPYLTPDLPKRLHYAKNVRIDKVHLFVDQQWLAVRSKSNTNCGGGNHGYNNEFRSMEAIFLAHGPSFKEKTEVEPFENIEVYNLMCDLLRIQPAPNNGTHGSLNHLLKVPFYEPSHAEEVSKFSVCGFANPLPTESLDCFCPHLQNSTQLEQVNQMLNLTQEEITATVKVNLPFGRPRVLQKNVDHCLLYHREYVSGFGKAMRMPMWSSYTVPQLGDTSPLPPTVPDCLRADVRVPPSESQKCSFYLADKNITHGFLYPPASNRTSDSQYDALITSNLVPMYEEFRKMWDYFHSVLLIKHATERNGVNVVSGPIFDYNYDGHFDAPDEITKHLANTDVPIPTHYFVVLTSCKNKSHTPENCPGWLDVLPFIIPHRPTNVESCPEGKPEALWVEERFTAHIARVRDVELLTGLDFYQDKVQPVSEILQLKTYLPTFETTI

T2: biotinylated cynomolgus CD203c (bio-cyCD203c, Icosagen) (cynomolgus monkey, UniProt A0A2K5TKP4 31-874, biotinylated (site not stated))
T2 construct: Captured on a Biotin CAPture chip for SPR; also called cyno CD203c
T2 sequence: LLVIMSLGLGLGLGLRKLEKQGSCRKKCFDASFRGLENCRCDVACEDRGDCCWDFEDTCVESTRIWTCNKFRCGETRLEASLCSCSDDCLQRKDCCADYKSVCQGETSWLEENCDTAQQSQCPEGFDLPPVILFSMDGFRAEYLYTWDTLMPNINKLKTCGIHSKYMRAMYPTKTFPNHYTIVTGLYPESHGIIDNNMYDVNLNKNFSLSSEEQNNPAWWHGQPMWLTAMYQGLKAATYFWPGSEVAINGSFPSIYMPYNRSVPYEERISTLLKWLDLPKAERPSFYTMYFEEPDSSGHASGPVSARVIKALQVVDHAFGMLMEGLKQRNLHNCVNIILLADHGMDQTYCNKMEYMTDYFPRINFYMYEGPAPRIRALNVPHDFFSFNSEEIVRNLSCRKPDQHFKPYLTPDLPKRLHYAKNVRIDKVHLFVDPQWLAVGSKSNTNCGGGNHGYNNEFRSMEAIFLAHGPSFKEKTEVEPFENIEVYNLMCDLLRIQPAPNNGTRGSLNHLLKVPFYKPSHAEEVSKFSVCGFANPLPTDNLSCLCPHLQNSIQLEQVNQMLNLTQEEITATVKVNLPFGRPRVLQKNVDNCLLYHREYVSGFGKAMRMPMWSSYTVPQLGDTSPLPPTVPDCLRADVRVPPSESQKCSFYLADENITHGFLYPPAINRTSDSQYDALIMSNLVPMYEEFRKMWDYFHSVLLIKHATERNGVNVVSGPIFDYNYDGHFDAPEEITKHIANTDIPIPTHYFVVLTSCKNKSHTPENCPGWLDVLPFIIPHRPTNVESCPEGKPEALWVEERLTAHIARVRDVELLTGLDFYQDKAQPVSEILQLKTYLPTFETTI


Key:
human c-Kit (SPR) = human c-Kit (SPR) (human, UniProt P10721 26-520, limits assumed); assay: SPR, single-cycle kinetics, Human C-kit
c-Kit on KU812 cells = target: T3, c-Kit on KU812 cells (UniProt P10721 26-976, limits assumed); assay: flow cytometry on KU812 cells, which carry both c-Kit and CD203c (median fluorescence intensity); signal not separated by target
T3 construct: whole, on cells; also called c-Kit receptor; CD117
Experimental: All treatments were performed on cells seeded in T75 flasks at a seeding density of 0.3e6/ml. Cells were cultured in the presence of 80 ng/ml of SCF and treated with 20 ng/ml of IL3 24 hours prior to antibody staining. Following SCF/IL3 treatment, cells were harvested and stained with live dead stain (Zombie UV Biolegend 423108). Cells were then stained with a titration of anti-CD203c antibodies/bispecifics or respective isotype controls in a 5-fold dilution series starting at 50 μg/mL and detected with Anti human-Fc AF647 antibody (JIR 109-605-098). Samples were subsequently run on a Yeti analyzer, gating on 10K live cells. Subsequent analysis was performed using FlowJo software and data represented as MFI (median fluorescent intensity).

cyno c-Kit (SPR) = cyno c-Kit (SPR) (cyno, UniProt F6V858 26-520 (rhesus entry)); assay: SPR, single-cycle kinetics, Cynomolgus C-kit
[1] = target: T1, biotinylated human CD203c …; assay: SPR, single-cycle protocol, Bio-huCD203c; table gives Rmax, Chi2 and KD only
[2] = target: T2, biotinylated cynomolgus CD203c …; assay: SPR, single-cycle protocol, Bio-cyCD203c; table gives Rmax, Chi2 and KD only

Chain of human c-Kit (SPR) (P10721 26-520 limits assumed): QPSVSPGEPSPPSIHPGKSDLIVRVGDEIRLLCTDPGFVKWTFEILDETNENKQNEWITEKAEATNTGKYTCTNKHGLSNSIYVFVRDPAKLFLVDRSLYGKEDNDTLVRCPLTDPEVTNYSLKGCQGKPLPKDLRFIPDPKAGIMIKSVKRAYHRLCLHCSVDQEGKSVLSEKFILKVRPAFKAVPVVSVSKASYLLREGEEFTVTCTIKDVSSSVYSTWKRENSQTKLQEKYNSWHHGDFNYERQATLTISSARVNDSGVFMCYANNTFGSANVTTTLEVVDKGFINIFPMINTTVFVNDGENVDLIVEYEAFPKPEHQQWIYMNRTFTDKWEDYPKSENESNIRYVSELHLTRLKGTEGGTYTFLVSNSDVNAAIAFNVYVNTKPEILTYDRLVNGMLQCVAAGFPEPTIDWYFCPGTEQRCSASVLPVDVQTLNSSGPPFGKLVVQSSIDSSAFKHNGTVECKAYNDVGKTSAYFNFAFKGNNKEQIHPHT
Chain of cyno c-Kit (SPR) (chain, as listed by the source): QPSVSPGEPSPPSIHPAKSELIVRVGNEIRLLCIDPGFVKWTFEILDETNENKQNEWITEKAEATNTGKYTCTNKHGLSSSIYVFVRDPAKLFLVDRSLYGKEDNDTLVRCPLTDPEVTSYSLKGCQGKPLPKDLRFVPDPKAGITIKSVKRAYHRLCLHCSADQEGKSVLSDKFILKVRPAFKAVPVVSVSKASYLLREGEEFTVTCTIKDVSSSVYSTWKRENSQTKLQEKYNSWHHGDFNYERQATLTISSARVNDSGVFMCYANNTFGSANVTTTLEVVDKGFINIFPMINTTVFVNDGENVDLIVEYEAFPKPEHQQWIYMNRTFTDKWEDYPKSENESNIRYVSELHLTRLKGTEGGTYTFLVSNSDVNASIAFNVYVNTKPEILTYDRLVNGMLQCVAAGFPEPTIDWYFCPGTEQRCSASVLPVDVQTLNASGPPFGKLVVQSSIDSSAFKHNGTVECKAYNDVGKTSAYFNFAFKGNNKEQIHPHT
T3 sequence (P10721 26-976 limits assumed): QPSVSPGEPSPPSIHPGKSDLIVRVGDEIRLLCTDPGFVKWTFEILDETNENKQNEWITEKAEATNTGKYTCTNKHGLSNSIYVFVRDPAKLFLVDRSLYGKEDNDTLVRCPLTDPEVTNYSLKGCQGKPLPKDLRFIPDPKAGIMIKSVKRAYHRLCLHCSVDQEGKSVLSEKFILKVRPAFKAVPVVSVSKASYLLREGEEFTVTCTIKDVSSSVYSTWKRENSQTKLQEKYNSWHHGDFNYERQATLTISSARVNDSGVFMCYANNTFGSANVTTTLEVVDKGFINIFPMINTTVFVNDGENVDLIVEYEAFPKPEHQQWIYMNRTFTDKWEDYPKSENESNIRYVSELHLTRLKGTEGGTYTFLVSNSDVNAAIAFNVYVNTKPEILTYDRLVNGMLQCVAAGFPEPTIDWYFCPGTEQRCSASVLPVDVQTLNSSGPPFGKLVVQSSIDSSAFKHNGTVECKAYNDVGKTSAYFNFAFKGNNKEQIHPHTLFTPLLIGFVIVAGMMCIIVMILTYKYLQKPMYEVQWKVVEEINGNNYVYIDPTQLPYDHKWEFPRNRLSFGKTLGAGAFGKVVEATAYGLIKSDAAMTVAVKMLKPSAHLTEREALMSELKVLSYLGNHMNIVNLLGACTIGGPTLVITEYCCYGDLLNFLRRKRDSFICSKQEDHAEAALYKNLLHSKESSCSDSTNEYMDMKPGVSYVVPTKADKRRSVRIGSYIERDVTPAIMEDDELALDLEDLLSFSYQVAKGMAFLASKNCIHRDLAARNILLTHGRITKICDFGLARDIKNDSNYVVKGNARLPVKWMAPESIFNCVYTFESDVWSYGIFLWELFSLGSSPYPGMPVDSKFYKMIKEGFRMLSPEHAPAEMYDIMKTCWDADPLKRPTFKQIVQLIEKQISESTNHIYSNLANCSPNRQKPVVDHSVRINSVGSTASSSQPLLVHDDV

Kd (human c-Kit (SPR)) | koff (human c-Kit (SPR)) | kon (human c-Kit (SPR)) | EC50 (c-Kit on KU812 cells) | Kd (cyno c-Kit (SPR)) | koff (cyno c-Kit (SPR)) | kon (cyno c-Kit (SPR)) | Kd [1] | Kd [2] | Binder
45.1 nM | 0.00978 s⁻¹ | 217000 M⁻¹ s⁻¹ | 0.548 nM | 52.7 nM | 0.0159 s⁻¹ | 301000 M⁻¹ s⁻¹ |  |  | MH1/F6.12 bispecific (parental, before pI engineering) (bispecific antibody, V domains shown, Knob-in-hole IgG1null bispecific with human Ckappa; also called parental bispecific MH1/F6.12) VH 1: QVQLVQSGAEVKKPGASVKVSCKASGYTFTDYYMNWVRQAPGQGLEWMGRIYPGSGNTYYAQKFQGRVTMTRDTSTSTVYMELSSLRSEDTAVYYCARGVYYYDYWGQGTLVTVSS VH 2: EVQLVQSGAEVKKPGESLKISCKGSGYRFASNWIGWVRQMPGKGLEWMGEIYPGDSNTRYSPSFQGQVTISADKSISTAYLQWSSLKASDTAMYYCARKDYYYGIMDVWGQGTTVTVSS VL: DIQMTQSPSSLSASVGDRVTITCRASQGIRTNLAWFQQKPGKAPKSLIYAASSLQSGVPSRFSGSGSGTDFTLTISSLQPEDFATYYCQQYNSYPRTFGGGTKVEIK
82.7 nM | 0.0166 s⁻¹ | 201000 M⁻¹ s⁻¹ |  | 95.5 nM | 0.0277 s⁻¹ | 291000 M⁻¹ s⁻¹ | 98.5 nM | 68.2 nM | FJ2156_MH1_A x F6_12B huIgG1 KIH (bispecific antibody, V domains shown, also called MH1_A/F6.12_B) VH 1: EVQLVQSGAEVKKPGASVKVSCKASGYTFTDYYMNWVRQAPGQGLEWMGRIYPGSGNTYYAQKFQDRVTMTRDTSTSTVYMELSSLRSEDTAVYYCARGVYYYDYWGQGTLVTVSS VH 2: QVQLVQSGAEVKKPGESLKISCKGSGYRFASNWIGWVRQMPGKGLQWMGEIYPGDSNTRYSPSFQGQVTISADKSISTAYLQWSSLKASDTAMYYCARKDYYYGIMDVWGQGTTVTVSS VL: DIQMTQSPSSLSASVGDRVTITCRASQGIRTNLAWFQQKPGKAPKSLIYAASSLQSGVPSRFSGSGSGTDFTLTISSLQPEDFATYYCQQYNSYPRTFGGGTKVEIK
86.1 nM | 0.0171 s⁻¹ | 199000 M⁻¹ s⁻¹ |  | 91.3 nM | 0.0272 s⁻¹ | 297000 M⁻¹ s⁻¹ | 84.8 nM | 51.8 nM | FJ2156_MH1_A x F6_12C huIgG1 KIH (bispecific antibody, V domains shown, also called MH1_A/F6.12_C) VH 1: EVQLVQSGAEVKKPGASVKVSCKASGYTFTDYYMNWVRQAPGQGLEWMGRIYPGSGNTYYAQKFQDRVTMTRDTSTSTVYMELSSLRSEDTAVYYCARGVYYYDYWGQGTLVTVSS VH 2: QVQLVQSGAEVKKPGESLKISCKGSGYRFASNWIGWVRQMPGKGLEWMGEIYPGDSNTRYRPSFQGQVTISADKSISTAYLQWSSLKASDTAMYYCARKDYYYGIMDVWGQGTTVTVSS VL: DIQMTQSPSSLSASVGDRVTITCRASQGIRTNLAWFQQKPGKAPKSLIYAASSLQSGVPSRFSGSGSGTDFTLTISSLQPEDFATYYCQQYNSYPRTFGGGTKVEIK
